Laboratory results taken from paper PMC5193325.

Target: Flag-NLRP3 (UniProt Q96P20)
Assay: pull-down; competition: purified cytochrome c (100 ng) or BSA added to Flag-NLRP3 immunoprecipitates with HA-NEK7 lysate, 1 hour at room temperature; NEK7 left on the beads read by immunoblot, ImageJ

Flag-NLRP3, sequence (Q96P20 whole entry): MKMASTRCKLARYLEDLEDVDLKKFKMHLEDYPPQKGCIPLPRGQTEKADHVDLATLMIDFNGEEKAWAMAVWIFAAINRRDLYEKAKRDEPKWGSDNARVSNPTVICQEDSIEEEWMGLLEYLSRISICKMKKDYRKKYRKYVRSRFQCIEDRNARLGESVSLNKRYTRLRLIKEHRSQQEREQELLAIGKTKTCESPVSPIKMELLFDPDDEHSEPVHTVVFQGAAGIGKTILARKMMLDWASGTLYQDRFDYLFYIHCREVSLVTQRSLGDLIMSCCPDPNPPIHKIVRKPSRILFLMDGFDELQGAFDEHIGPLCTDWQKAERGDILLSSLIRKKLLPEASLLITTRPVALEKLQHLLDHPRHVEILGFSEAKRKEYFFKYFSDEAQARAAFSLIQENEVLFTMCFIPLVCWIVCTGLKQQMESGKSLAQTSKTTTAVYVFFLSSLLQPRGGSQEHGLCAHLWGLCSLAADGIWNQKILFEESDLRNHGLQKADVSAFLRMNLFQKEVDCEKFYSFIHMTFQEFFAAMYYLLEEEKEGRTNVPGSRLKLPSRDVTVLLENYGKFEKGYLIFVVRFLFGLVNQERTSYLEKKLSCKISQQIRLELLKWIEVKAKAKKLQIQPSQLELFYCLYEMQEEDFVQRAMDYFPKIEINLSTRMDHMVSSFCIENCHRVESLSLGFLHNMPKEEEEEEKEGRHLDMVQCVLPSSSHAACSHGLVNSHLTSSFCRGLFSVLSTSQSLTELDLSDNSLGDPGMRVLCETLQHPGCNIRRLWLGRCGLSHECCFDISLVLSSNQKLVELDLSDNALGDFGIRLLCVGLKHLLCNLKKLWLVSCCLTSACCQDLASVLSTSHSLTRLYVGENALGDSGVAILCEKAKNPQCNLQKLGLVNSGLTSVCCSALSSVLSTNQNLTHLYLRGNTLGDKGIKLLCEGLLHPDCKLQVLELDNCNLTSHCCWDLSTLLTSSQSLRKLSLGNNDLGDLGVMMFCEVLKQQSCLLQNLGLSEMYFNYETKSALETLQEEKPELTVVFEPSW

Purified cytochrome c protein (Sigma-Aldrich) (from UniProt P99999 1-105) (natural protein)
percent reduction of NEK7 bound to Flag-NLRP3 (cytochrome c against BSA): 70%
